# B1: Refmab #3 (antibody, V domains shown)
# VH: QVQLVQSGAEVKKPGSSVKVSCKASGYTFTDYNMHWVRQAPGQGLEWIGYIYPYNGGTGYNQKFKSKATITADESTNTAYMELSSLRSEDTAVYYCARGRPAMDYWGQGTLVTVSS
# VL: DIQMTQSPSSLSASVGDRVTITCRASESVDNYGISFMNWFQQKPGKAPKLLIYAASNQGSGVPSRFSGSGSGTDFTLTISSLQPDDFATYYCQQSKEVPWTFGQGTKVEIK
# notes: The alanine scan used IgG or Fab
# B2: Refmab #3 (antibody, V domains shown)
# VH: B1 VH
# VL: B1 VL
# notes: In the alanine scan antibodies were used as IgG or Fab
# B3: Refmab #3 (antibody, V domains shown)
# VH: B1 VH
# VL: B1 VL
# notes: as for B1
# B4: Refmab #2 (antibody, V domains shown)
# VH: QVQLVQSGAEVKKPGSSVKVSCKASGGTFSDYAISWVRQAPGQGLEWMGRIIPILGVADYAQKFQGRVTITADKSTRTAYMELSSLRSEDTAVYYCARNWADAFDIWGQGTMVTVSS
# VL: DIQLTQSPSSLSASVGDRVTITCRASQGISSVLAWYQQKPGKAPKLLIYDASSLESGVPSRFSGSGSGTDFTLTISSLQPEDFATYYCQQFDSSITFGQGTKLEIK
# notes: as for B2
# B5: Refmab #2 (antibody, V domains shown)
# VH: B4 VH
# VL: B4 VL
# notes: as for B1
# B6: Refmab #4 (antibody, V domains shown)
# VH: QVQLVQSGAEVKKPGESVKVSCKASGYTFTNYGMNWVKQAPGQGLEWMGWINTYTGEPTYADKFQGRVTMTTDTSTSTAYMEIRNLGGDDTAVYYCARWSWSDGYYVYFDYWGQGTSVTVSS
# VL: DIVMTQSPDSLTVSLGERTTINCKSSQSVLDSSTNKNSLAWYQQKPGQPPKLLLSWASTRESGIPDRFSGSGSGTDFTLTIDSPQPEDSATYYCQQSAHFPITFGQGTRLEIK
# notes: as for B2
# B7: Refmab #4 (antibody, V domains shown)
# VH: B6 VH
# VL: B6 VL
# notes: as for B1
# B8: Refmab #1 (antibody, V domains shown)
# VH: EVQLVQSGAEVKKPGSSVKVSCKASGYTITDSNIHWVRQAPGQSLEWIGYIYPYNGGTDYNQKFKNRATLTVDNPTNTAYMELSSLRSEDTAFYYCVNGNPWLAYWGQGTLVTVSS
# VL: DIQLTQSPSTLSASVGDRVTITCRASESLDNYGIRFLTWFQQKPGKAPKLLMYAASNQGSGVPSRFSGSGSGTEFTLTISSLQPDDFATYYCQQTKEVPWSFGQGTKVEVK
# notes: In the alanine scan antibodies were used as IgG or Fab; also called hP67.6
# B9: Refmab #1 (antibody, V domains shown)
# VH: B8 VH
# VL: B8 VL
# notes: The alanine scan used IgG or Fab; also called hP67.6
# Legend:
# [1] = target: human CD33 R98A (human, UniProt P20138 18-364); test: flow cytometry on HEK293-T, alanine scan
# Description: (§1) An alanine scan on human CD33 was performed to the determine the residues on CD33 that are involved in binding to the antibodies investigated. […] Briefly, a mutation library of CD33 was created by high-throughput, site-directed mutagenesis. Each residue was individually mutated to alanine, with alanine codons mutated to serine. The mutant library was arrayed in 384-well microplates and transiently transfected into HEK293-T. Following transfection, cells were incubated with the indicated antibodies (IgG or Fab) at concentrations pre-determined using an independent immunofluorescence titration curve on wild type CD33. […] Binding of each antibody to each mutant clone was determined in duplicates. For each point, background fluorescence was subtracted from the raw data, which were then normalized to antibody reactivity with wild type CD33.
# (§2) Critical residues for antibody binding (outlined in dark grey) were residues whose mutations led to a binding of the test Abs of less than 20%. Additional secondary residues (outlined in light grey) were identified that led to a binding of the test Abs of between 20 and 40% as compared to the wild type CD33.
# [2] = target: human CD33 S102A (human, UniProt P20138 18-364); test: flow cytometry on HEK293-T, alanine scan
# Description: as §1, §2
# [3] = target: human CD33 I105A (human, UniProt P20138 18-364); test: flow cytometry on HEK293-T, alanine scan
# Description: as §1, §2
# [4] = target: human CD33 V106A (human, UniProt P20138 18-364); test: flow cytometry on HEK293-T, alanine scan
# Description: as §1, §2
# [5] = target: human CD33 D107A (human, UniProt P20138 18-364); test: flow cytometry on HEK293-T, alanine scan
# Description: as §1, §2
# [6] = target: human CD33 A108S (human, UniProt P20138 18-364); test: flow cytometry on HEK293-T, alanine scan
# Description: as §1, §2
# [7] = target: human CD33 R110A (human, UniProt P20138 18-364); test: flow cytometry on HEK293-T, alanine scan
# Description: as §1, §2
# [8] = target: human CD33 D112A (human, UniProt P20138 18-364); test: flow cytometry on HEK293-T, alanine scan
# Description: as §1, §2
# [9] = target: human CD33 S115A (human, UniProt P20138 18-364); test: flow cytometry on HEK293-T, alanine scan
# Description: as §1, §2
# [10] = target: human CD33 F118A (human, UniProt P20138 18-364); test: flow cytometry on HEK293-T, alanine scan
# Description: as §1, §2
# [11] = target: human CD33 R122A (human, UniProt P20138 18-364); test: flow cytometry on HEK293-T, alanine scan
# Description: as §1, §2
# [12] = target: human CD33 G123A (human, UniProt P20138 18-364); test: flow cytometry on HEK293-T, alanine scan
# Description: as §1, §2
# [13] = target: human CD33 K126A (human, UniProt P20138 18-364); test: flow cytometry on HEK293-T, alanine scan
# Description: as §1, §2
# [14] = target: human CD33 Y127A (human, UniProt P20138 18-364); test: flow cytometry on HEK293-T, alanine scan
# Description: as §1, §2
# [15] = target: human CD33 S131A (human, UniProt P20138 18-364); test: flow cytometry on HEK293-T, alanine scan
# Description: as §1, §2
# [16] = target: human CD33 L134A (human, UniProt P20138 18-364); test: flow cytometry on HEK293-T, alanine scan
# Description: as §1, §2
# [17] = target: human CD33 S135A (human, UniProt P20138 18-364); test: flow cytometry on HEK293-T, alanine scan
# Description: as §1, §2
# [18] = target: human CD33 V136A (human, UniProt P20138 18-364); test: flow cytometry on HEK293-T, alanine scan
# Description: as §1, §2
# [19] = target: human CD33 V138A (human, UniProt P20138 18-364); test: flow cytometry on HEK293-T, alanine scan
# Description: as §1, §2
# [20] = target: human CD33 R144A (human, UniProt P20138 18-364); test: flow cytometry on HEK293-T, alanine scan
# Description: as §1, §2
# [21] = target: human CD33 K146A (human, UniProt P20138 18-364); test: flow cytometry on HEK293-T, alanine scan
# Description: as §1, §2
# [22] = target: human CD33 I147A (human, UniProt P20138 18-364); test: flow cytometry on HEK293-T, alanine scan
# Description: as §1, §2
# [23] = target: human CD33 G94A (human, UniProt P20138 18-364); test: flow cytometry on HEK293-T, alanine scan
# Description: as §1, §2
# [24] = target: human CD33 D95A (human, UniProt P20138 18-364); test: flow cytometry on HEK293-T, alanine scan
# Description: as §1, §2
# [25] = target: human CD33 S158A (human, UniProt P20138 18-364); test: flow cytometry on HEK293-T, alanine scan
# Description: as §1, §2
# [26] = target: human CD33 N160A (human, UniProt P20138 18-364); test: flow cytometry on HEK293-T, alanine scan
# Description: as §1, §2
# [27] = target: human CD33 L161A (human, UniProt P20138 18-364); test: flow cytometry on HEK293-T, alanine scan
# Description: as §1, §2
# [28] = target: human CD33 C163A (human, UniProt P20138 18-364); test: flow cytometry on HEK293-T, alanine scan
# Description: as §1, §2
# [29] = target: human CD33 V165A (human, UniProt P20138 18-364); test: flow cytometry on HEK293-T, alanine scan
# Description: as §1, §2
# [30] = target: human CD33 W167A (human, UniProt P20138 18-364); test: flow cytometry on HEK293-T, alanine scan
# Description: as §1, §2
# [31] = target: human CD33 F216A (human, UniProt P20138 18-364); test: alanine scan, flow cytometry, HEK293-T;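 also: antibody binding to each alanine-substituted CD33 mutant expressed transiently in HEK293-T, read as fluorescence minus background, mean of duplicates, relative to wild-type CD33 set as 100%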
# Description: as §1, §2
# [32] = target: human CD33 V234A (human, UniProt P20138 18-364); test: alanine scan, flow cytometry, HEK293-T;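 also: antibody binding to each alanine-substituted CD33 mutant expressed transiently in HEK293-T, read as fluorescence minus background, mean of duplicates, relative to wild-type CD33 set as 100%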
# Description: as §1, §2
# [33] = target: human CD33 S248A (human, UniProt P20138 18-364); test: alanine scan, flow cytometry, HEK293-T;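 also: antibody binding to each alanine-substituted CD33 mutant expressed transiently in HEK293-T, read as fluorescence minus background, mean of duplicates, relative to wild-type CD33 set as 100%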
# Description: as §1, §2
# [34] = target: human CD33 T253A (human, UniProt P20138 18-364); test: alanine scan, flow cytometry, HEK293-T;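 also: antibody binding to each alanine-substituted CD33 mutant expressed transiently in HEK293-T, read as fluorescence minus background, mean of duplicates, relative to wild-type CD33 set as 100%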
# Description: as §1, §2
# [35] = target: human CD33 K309A (human, UniProt P20138 18-364); test: alanine scan, flow cytometry, HEK293-T
# Chain of human CD33 K309A (P20138 18-364 K309A limits assumed): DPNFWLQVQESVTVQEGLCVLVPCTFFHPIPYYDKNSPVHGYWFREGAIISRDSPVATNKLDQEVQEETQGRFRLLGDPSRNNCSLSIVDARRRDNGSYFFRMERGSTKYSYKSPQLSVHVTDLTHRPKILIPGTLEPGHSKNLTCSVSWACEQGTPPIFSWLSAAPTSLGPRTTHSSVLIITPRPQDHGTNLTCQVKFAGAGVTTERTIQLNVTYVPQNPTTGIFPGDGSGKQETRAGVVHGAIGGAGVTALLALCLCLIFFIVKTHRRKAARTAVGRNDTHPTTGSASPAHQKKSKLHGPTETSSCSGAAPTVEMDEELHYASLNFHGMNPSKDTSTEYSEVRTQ
# Description: as §1, §2
# Chain of human CD33 V234A (P20138 18-364 V234A limits assumed): as the sequence (P20138 18-364 K309A limits assumed) above, with V217A, A292K counted along it
# Chain of human CD33 F216A (P20138 18-364 F216A limits assumed): as the sequence (P20138 18-364 K309A limits assumed) above, with F199A, A292K counted along it
# Chain of human CD33 S248A (P20138 18-364 S248A limits assumed): as the sequence (P20138 18-364 K309A limits assumed) above, with S231A, A292K counted along it
# Chain of human CD33 T253A (P20138 18-364 T253A limits assumed): as the sequence (P20138 18-364 K309A limits assumed) above, with T236A, A292K counted along it
# Chain of human CD33 K146A (P20138 18-364 K146A limits assumed): as the sequence (P20138 18-364 K309A limits assumed) above, with K129A, A292K counted along it
# Chain of human CD33 S102A (P20138 18-364 S102A limits assumed): as the sequence (P20138 18-364 K309A limits assumed) above, with S85A, A292K counted along it
# Chain of human CD33 F118A (P20138 18-364 F118A limits assumed): as the sequence (P20138 18-364 K309A limits assumed) above, with F101A, A292K counted along it
# Chain of human CD33 N160A (P20138 18-364 N160A limits assumed): as the sequence (P20138 18-364 K309A limits assumed) above, with N143A, A292K counted along it
# Chain of human CD33 V136A (P20138 18-364 V136A limits assumed): as the sequence (P20138 18-364 K309A limits assumed) above, with V119A, A292K counted along it
# Chain of human CD33 C163A (P20138 18-364 C163A limits assumed): as the sequence (P20138 18-364 K309A limits assumed) above, with C146A, A292K counted along it
# Chain of human CD33 R144A (P20138 18-364 R144A limits assumed): as the sequence (P20138 18-364 K309A limits assumed) above, with R127A, A292K counted along it
# Chain of human CD33 R98A (P20138 18-364 R98A limits assumed): as the sequence (P20138 18-364 K309A limits assumed) above, with R81A, A292K counted along it
# Chain of human CD33 S135A (P20138 18-364 S135A limits assumed): as the sequence (P20138 18-364 K309A limits assumed) above, with S118A, A292K counted along it
# Chain of human CD33 I147A (P20138 18-364 I147A limits assumed): as the sequence (P20138 18-364 K309A limits assumed) above, with I130A, A292K counted along it
# Chain of human CD33 G94A (P20138 18-364 G94A limits assumed): as the sequence (P20138 18-364 K309A limits assumed) above, with G77A, A292K counted along it
# Chain of human CD33 V106A (P20138 18-364 V106A limits assumed): as the sequence (P20138 18-364 K309A limits assumed) above, with V89A, A292K counted along it
# Chain of human CD33 L161A (P20138 18-364 L161A limits assumed): as the sequence (P20138 18-364 K309A limits assumed) above, with L144A, A292K counted along it
# Chain of human CD33 K126A (P20138 18-364 K126A limits assumed): as the sequence (P20138 18-364 K309A limits assumed) above, with K109A, A292K counted along it
# Chain of human CD33 L134A (P20138 18-364 L134A limits assumed): as the sequence (P20138 18-364 K309A limits assumed) above, with L117A, A292K counted along it
# Chain of human CD33 D95A (P20138 18-364 D95A limits assumed): as the sequence (P20138 18-364 K309A limits assumed) above, with D78A, A292K counted along it
# Chain of human CD33 S158A (P20138 18-364 S158A limits assumed): as the sequence (P20138 18-364 K309A limits assumed) above, with S141A, A292K counted along it
# Chain of human CD33 R122A (P20138 18-364 R122A limits assumed): as the sequence (P20138 18-364 K309A limits assumed) above, with R105A, A292K counted along it
# Chain of human CD33 D112A (P20138 18-364 D112A limits assumed): as the sequence (P20138 18-364 K309A limits assumed) above, with D95A, A292K counted along it
# Chain of human CD33 Y127A (P20138 18-364 Y127A limits assumed): as the sequence (P20138 18-364 K309A limits assumed) above, with Y110A, A292K counted along it
# Chain of human CD33 W167A (P20138 18-364 W167A limits assumed): as the sequence (P20138 18-364 K309A limits assumed) above, with W150A, A292K counted along it
# Chain of human CD33 I105A (P20138 18-364 I105A limits assumed): as the sequence (P20138 18-364 K309A limits assumed) above, with I88A, A292K counted along it
# Chain of human CD33 S131A (P20138 18-364 S131A limits assumed): as the sequence (P20138 18-364 K309A limits assumed) above, with S114A, A292K counted along it
# Chain of human CD33 S115A (P20138 18-364 S115A limits assumed): as the sequence (P20138 18-364 K309A limits assumed) above, with S98A, A292K counted along it
# Chain of human CD33 A108S (P20138 18-364 A108S limits assumed): as the sequence (P20138 18-364 K309A limits assumed) above, with A91S, A292K counted along it
# Chain of human CD33 V165A (P20138 18-364 V165A limits assumed): as the sequence (P20138 18-364 K309A limits assumed) above, with V148A, A292K counted along it
# Chain of human CD33 V138A (P20138 18-364 V138A limits assumed): as the sequence (P20138 18-364 K309A limits assumed) above, with V121A, A292K counted along it
# Chain of human CD33 D107A (P20138 18-364 D107A limits assumed): as the sequence (P20138 18-364 K309A limits assumed) above, with D90A, A292K counted along it
# Chain of human CD33 G123A (P20138 18-364 G123A limits assumed): as the sequence (P20138 18-364 K309A limits assumed) above, with G106A, A292K counted along it
# Chain of human CD33 R110A (P20138 18-364 R110A limits assumed): as the sequence (P20138 18-364 K309A limits assumed) above, with R93A, A292K counted along it
binder,measurement,setting,value
B1,Mean % WT Binding,[1],102 % WT binding
same,Mean % WT Binding,[2],75.9 % WT binding
same,Mean % WT Binding,[3],64.7 % WT binding
same,Mean % WT Binding,[4],85.7 % WT binding
same,Mean % WT Binding,[5],92.5 % WT binding
same,Mean % WT Binding,[6],98 % WT binding
same,Mean % WT Binding,[7],99.1 % WT binding
same,Mean % WT Binding,[8],77.5 % WT binding
same,Mean % WT Binding,[9],77.2 % WT binding
same,Mean % WT Binding,[10],8.2 % WT binding
same,Mean % WT Binding,[11],177 % WT binding
same,Mean % WT Binding,[12],292 % WT binding
same,Mean % WT Binding,[13],566 % WT binding
same,Mean % WT Binding,[14],31.9 % WT binding
same,Mean % WT Binding,[15],117 % WT binding
same,Mean % WT Binding,[16],81.4 % WT binding
same,Mean % WT Binding,[17],107 % WT binding
same,Mean % WT Binding,[18],106 % WT binding
same,Mean % WT Binding,[19],129 % WT binding
same,Mean % WT Binding,[20],112 % WT binding
same,Mean % WT Binding,[21],118 % WT binding
same,Mean % WT Binding,[22],67.1 % WT binding
same,Mean % WT Binding,[23],115 % WT binding
same,Mean % WT Binding,[24],103 % WT binding
same,Mean % WT Binding,[25],111 % WT binding
same,Mean % WT Binding,[26],99.3 % WT binding
same,Mean % WT Binding,[27],116 % WT binding
same,Mean % WT Binding,[28],65.7 % WT binding
same,Mean % WT Binding,[29],116 % WT binding
same,Mean % WT Binding,[30],129 % WT binding
B2,Mean % WT Binding,[31],152%
same,Mean % WT Binding,[32],88.7%
B3,Mean % WT Binding,[33],133 % WT binding
same,Mean % WT Binding,[34],98.1 % WT binding
same,Mean % WT Binding,[35],92 % WT binding
B4,Mean % WT Binding,[31],101%
same,Mean % WT Binding,[32],117%
B5,Mean % WT Binding,[33],93.6 % WT binding
same,Mean % WT Binding,[34],104 % WT binding
same,Mean % WT Binding,[35],111 % WT binding
B6,Mean % WT Binding,[31],71.6%
same,Mean % WT Binding,[32],107%
B7,Mean % WT Binding,[33],99.7 % WT binding
same,Mean % WT Binding,[34],108 % WT binding
same,Mean % WT Binding,[35],99.9 % WT binding
B8,Mean % WT Binding,[31],87.3%
same,Mean % WT Binding,[32],85.8%
B9,Mean % WT Binding,[33],88.4 % WT binding
same,Mean % WT Binding,[34],94.5 % WT binding
same,Mean % WT Binding,[35],92.7 % WT binding

# From patent US20260242735A1 (UNIVERSIT T BASEL, published 2026)
